Patent publication US20150203577A1 (Chugai, published 2015)

Tests used:
mouse FcγRII [1] = molecular target: T1, mouse FcγRII (mouse, UniProt P08101 30-210); assay: SPR Biacore 4000, KD ratio
T1 construct: also called mFcγRII; mFcgRII
T1 sequence: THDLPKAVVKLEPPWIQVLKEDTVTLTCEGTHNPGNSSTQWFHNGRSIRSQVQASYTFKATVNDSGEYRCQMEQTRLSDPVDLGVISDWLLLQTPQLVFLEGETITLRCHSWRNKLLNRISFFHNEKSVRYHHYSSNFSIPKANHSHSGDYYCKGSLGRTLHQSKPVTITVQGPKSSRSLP
Procedure: (§1) Each altered antibody was analyzed for its interaction with each Fcγ receptor prepared above using Biacore T100 (GE Healthcare Japan Corp.), Biacore T200 (GE Healthcare Japan Corp.), Biacore A100, or Biacore 4000. The running buffer used was HBS-EP+ (GE Healthcare Japan Corp.). The assay temperature was set to 25° C. The sensor chips used were chips prepared by immobilizing Protein L (ACTIGEN or BioVision) onto Series S Sensor Chip CM5 (GE Healthcare Japan Corp.) or Series S Sensor Chip CM4 (GE Healthcare Japan Corp.) by the amine coupling method.
(§2) In order to calculate the KD value of each altered antibody for FcγR, kinetic analysis was conducted according to the following method: first, the antibody of interest was captured onto any of these chips and allowed to interact with mFcγR diluted with a running buffer. For the obtained sensorgram, the assay results were globally fit into the 1:1 Langmuir binding model using Biacore Evaluation Software to calculate an association rate constant ka (L/mol/s) and a dissociation rate constant kd (1/s). From these values, the dissociation constant KD (mol/L) was calculated.

mouse FcγRIII [2] = molecular target: T2, mouse FcγRIII (mouse, UniProt P08508 31-215); assay: SPR Biacore 4000, KD ratio
T2 construct: also called mFcγRIII; mFcgRIII
T2 chain: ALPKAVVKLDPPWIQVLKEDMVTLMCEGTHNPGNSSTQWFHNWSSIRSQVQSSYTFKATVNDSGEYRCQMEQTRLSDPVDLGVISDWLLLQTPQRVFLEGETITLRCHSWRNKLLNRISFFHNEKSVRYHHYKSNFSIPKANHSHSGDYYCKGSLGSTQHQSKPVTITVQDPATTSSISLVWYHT
Procedure: as §1, §2

mouse FcγRII [3] = molecular target: T1, mouse FcγRII; assay: SPR Biacore T200, KD ratio
mouse FcγRIII [4] = molecular target: T2, mouse FcγRIII; assay: SPR Biacore T200, KD ratio

Binder	relative mFcγRII-binding activity (mIgG1 = 1) (mouse FcγRII [1]) [fold]	relative mFcγRIII-binding activity (mIgG1 = 1) (mouse FcγRIII [2]) [fold]	Relative mFcγRII-binding activity (MB110 = 1) (mouse FcγRII [3]) [fold]	relative mFcγRII-binding activity (mIgG1 = 1) (mouse FcγRII [3]) [fold]	Relative mFcγRIII-binding activity (MB110 = 1) (mouse FcγRIII [4]) [fold]	relative mFcγRIII-binding activity (mIgG1 = 1) (mouse FcγRIII [4]) [fold]
H237-MB110/MRAL-k0 (antibody, mouse IgG1, kappa, copies: 2 + 2) heavy: QVQLQESGPGLVKPSETLSLTCAVSGHSISHDHAWSWVRQPPGEGLEWIGFISYSGITNYNPSLQGRVTISRDNSKNTLYLQMNSLRAEDTAVYYCARSLARTTAMDYWGEGTLVTVSSAKTTPPSVYPLAPGSAAQTNSMVTLGCLVKGYFPEPVTVTWNSGSLSSGVHTFPAVLQSDLYTLSSSVTVPSSTWPSETVTCNVAHPASSTKVDKKIVPRDCGCKPCICTVPEVSDVFIFPPKPKDVLTITLTPKVTCVVVDISKDDPEVQFSWFVDDVEVHTAQTQPREEQFNSTFRSVSELPIMHQDWLNGKEFKCRVNSAAFPAPIEKTISKTKGRPKAPQVYTIPPPKEQMAKDKVSLTCMITDFFPEDITVEWQWNGQPAENYKNTQPIMDTDGSYFVYSKLNVQKSNWEAGNTFTCSVLHEGLHNHHTEKSLSHSPGK light: not shown	15.1	4.45	1	12.3	1	4
MB199 (antibody, mouse IgG1, kappa, copies: 2 + 2) heavy: QVQLQESGPGLVKPSETLSLTCAVSGHSISHDHAWSWVRQPPGEGLEWIGFISYSGITNYNPSLQGRVTISRDNSKNTLYLQMNSLRAEDTAVYYCARSLARTTAMDYWGEGTLVTVSSAKTTPPSVYPLAPGSAAQTNSMVTLGCLVKGYFPEPVTVTWNSGSLSSGVHTFPAVLQSDLYTLSSSVTVPSSTWPSETVTCNVAHPASSTKVDKKIVPRDCGCKPCICTVPEVSSVFIFPPKPKDVLTITLTPKVTCVVVDIAKDDPEVQFSWFVDDVEVHTAQTQPREEQFNSTFRSVSELPIMHQDWLNGKEFKCRVNSAAFPAPIEKTISKTKGRPKAPQVYTIPPPKEQMAKDKVSLTCMITDFFPEDITVEWQWNGQPAENYKNTQPIMDTDGSYFVYSKLNVQKSNWEAGNTFTCSVLHEGLHNHHTEKSLSHSPGK light: not shown	1.48	1.19	–	–	–	–
MB251 (antibody, mouse IgG1, kappa, copies: 2 + 2) heavy: QVQLQESGPGLVKPSETLSLTCAVSGHSISHDHAWSWVRQPPGEGLEWIGFISYSGITNYNPSLQGRVTISRDNSKNTLYLQMNSLRAEDTAVYYCARSLARTTAMDYWGEGTLVTVSSAKTTPPSVYPLAPGSAAQTNSMVTLGCLVKGYFPEPVTVTWNSGSLSSGVHTFPAVLQSDLYTLSSSVTVPSSTWPSETVTCNVAHPASSTKVDKKIVPRDCGCKPCICTVPEVSSVFIFPPKPKDVLTITLTPKVTCVVVDISKDDPEVQFSWFVDDVEVHTAQTQPREEQWNSTFRSVSELPIMHQDWLNGKEFKCRVNSAAFPAPIEKTISKTKGRPKAPQVYTIPPPKEQMAKDKVSLTCMITDFFPEDITVEWQWNGQPAENYKNTQPIMDTDGSYFVYSKLNVQKSNWEAGNTFTCSVLHEGLHNHHTEKSLSHSPGK light: not shown	1.49	1.23	–	–	–	–
MB188 (antibody, mouse IgG1, kappa, copies: 2 + 2) heavy: QVQLQESGPGLVKPSETLSLTCAVSGHSISHDHAWSWVRQPPGEGLEWIGFISYSGITNYNPSLQGRVTISRDNSKNTLYLQMNSLRAEDTAVYYCARSLARTTAMDYWGEGTLVTVSSAKTTPPSVYPLAPGSAAQTNSMVTLGCLVKGYFPEPVTVTWNSGSLSSGVHTFPAVLQSDLYTLSSSVTVPSSTWPSETVTCNVAHPASSTKVDKKIVPRDCGCKPCICTVPEVSSVFIFPPKPKDVLTITLTPKVTCVVVDLSKDDPEVQFSWFVDDVEVHTAQTQPREEQFNSTFRSVSELPIMHQDWLNGKEFKCRVNSAAFPAPIEKTISKTKGRPKAPQVYTIPPPKEQMAKDKVSLTCMITDFFPEDITVEWQWNGQPAENYKNTQPIMDTDGSYFVYSKLNVQKSNWEAGNTFTCSVLHEGLHNHHTEKSLSHSPGK light: not shown	1.16	1	–	–	–	–

The remaining lines, values ahead:

relative mFcγRII-binding activity (mIgG1 = 1) (mouse FcγRII [1]) [fold]	relative mFcγRIII-binding activity (mIgG1 = 1) (mouse FcγRIII [2]) [fold]	Relative mFcγRII-binding activity (MB110 = 1) (mouse FcγRII [3]) [fold]	relative mFcγRII-binding activity (mIgG1 = 1) (mouse FcγRII [3]) [fold]	Relative mFcγRIII-binding activity (MB110 = 1) (mouse FcγRIII [4]) [fold]	relative mFcγRIII-binding activity (mIgG1 = 1) (mouse FcγRIII [4]) [fold]	Binder
1.4	1.2	–	–	–	–	MB162 (antibody, mouse IgG1, kappa, copies: 2 + 2) heavy: QVQLQESGPGLVKPSETLSLTCAVSGHSISHDHAWSWVRQPPGEGLEWIGFISYSGITNYNPSLQGRVTISRDNSKNTLYLQMNSLRAEDTAVYYCARSLARTTAMDYWGEGTLVTVSSAKTTPPSVYPLAPGSAAQTNSMVTLGCLVKGYFPEPVTVTWNSGSLSSGVHTFPAVLQSDLYTLSSSVTVPSSTWPSETVTCNVAHPASSTKVDKKIVPRDCGCKPCICTVPEVSSVYIFPPKPKDVLTITLTPKVTCVVVDISKDDPEVQFSWFVDDVEVHTAQTQPREEQFNSTFRSVSELPIMHQDWLNGKEFKCRVNSAAFPAPIEKTISKTKGRPKAPQVYTIPPPKEQMAKDKVSLTCMITDFFPEDITVEWQWNGQPAENYKNTQPIMDTDGSYFVYSKLNVQKSNWEAGNTFTCSVLHEGLHNHHTEKSLSHSPGK light: not shown
1.47	1.13	–	–	–	–	MB161 (antibody, mouse IgG1, kappa, copies: 2 + 2) heavy: QVQLQESGPGLVKPSETLSLTCAVSGHSISHDHAWSWVRQPPGEGLEWIGFISYSGITNYNPSLQGRVTISRDNSKNTLYLQMNSLRAEDTAVYYCARSLARTTAMDYWGEGTLVTVSSAKTTPPSVYPLAPGSAAQTNSMVTLGCLVKGYFPEPVTVTWNSGSLSSGVHTFPAVLQSDLYTLSSSVTVPSSTWPSETVTCNVAHPASSTKVDKKIVPRDCGCKPCICTVPEVSSVWIFPPKPKDVLTITLTPKVTCVVVDISKDDPEVQFSWFVDDVEVHTAQTQPREEQFNSTFRSVSELPIMHQDWLNGKEFKCRVNSAAFPAPIEKTISKTKGRPKAPQVYTIPPPKEQMAKDKVSLTCMITDFFPEDITVEWQWNGQPAENYKNTQPIMDTDGSYFVYSKLNVQKSNWEAGNTFTCSVLHEGLHNHHTEKSLSHSPGK light: not shown
2.11	1.81	–	–	–	–	MB261 (antibody, mouse IgG1, kappa, copies: 2 + 2) heavy: QVQLQESGPGLVKPSETLSLTCAVSGHSISHDHAWSWVRQPPGEGLEWIGFISYSGITNYNPSLQGRVTISRDNSKNTLYLQMNSLRAEDTAVYYCARSLARTTAMDYWGEGTLVTVSSAKTTPPSVYPLAPGSAAQTNSMVTLGCLVKGYFPEPVTVTWNSGSLSSGVHTFPAVLQSDLYTLSSSVTVPSSTWPSETVTCNVAHPASSTKVDKKIVPRDCGCKPCICTVPEVSSVFIFPPKPKDVLTITLTPKVTCVVVDISKDDPEVQFSWFVDDVEVHTAQTQPREEQFNLTFRSVSELPIMHQDWLNGKEFKCRVNSAAFPAPIEKTISKTKGRPKAPQVYTIPPPKEQMAKDKVSLTCMITDFFPEDITVEWQWNGQPAENYKNTQPIMDTDGSYFVYSKLNVQKSNWEAGNTFTCSVLHEGLHNHHTEKSLSHSPGK light: not shown
